This note sets out measurements from patent US20170363644A1 (ROCKEFELLER UNIVERSITY, published 2017).

Where no end group is shown, it is not given here.

In the assay the target is T1, factor XII (FXII) (human, UniProt P00748 20-615).
T1 construct: Endogenous FXII in human plasma in the pulldown; purified FXII in the chromogenic assay; also called FXII zymogen
T1 sequence (looked up): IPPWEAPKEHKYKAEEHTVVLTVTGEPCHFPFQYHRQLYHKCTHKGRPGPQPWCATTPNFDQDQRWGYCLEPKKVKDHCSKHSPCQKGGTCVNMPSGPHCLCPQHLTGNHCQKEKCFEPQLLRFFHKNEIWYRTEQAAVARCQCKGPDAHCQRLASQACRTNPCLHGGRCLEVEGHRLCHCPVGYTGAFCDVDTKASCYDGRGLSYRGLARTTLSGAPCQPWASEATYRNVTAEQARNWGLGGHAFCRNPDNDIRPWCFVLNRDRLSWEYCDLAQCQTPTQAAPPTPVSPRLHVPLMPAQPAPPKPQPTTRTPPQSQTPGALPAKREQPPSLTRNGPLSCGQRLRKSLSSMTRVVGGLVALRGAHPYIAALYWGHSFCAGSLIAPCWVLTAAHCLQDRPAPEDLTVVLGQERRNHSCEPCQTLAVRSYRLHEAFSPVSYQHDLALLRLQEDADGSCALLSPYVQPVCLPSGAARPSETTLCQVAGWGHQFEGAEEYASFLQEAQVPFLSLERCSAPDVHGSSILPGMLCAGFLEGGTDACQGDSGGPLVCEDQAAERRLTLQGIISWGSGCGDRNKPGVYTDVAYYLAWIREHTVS
Kind of assay: streptavidin bead pulldown from human plasma, Western blot for FXII.

B1: biotinylated amylin (peptide, UniProt P10997 34-70, looked up)
peptide: KCNTATCATQRLANFLVHSSNNFGAILSSTNVGSNTY
modifications: ends and bridges not checked; also: biotinylated (site not given here)
notes: Control aggregating peptide in the pulldown
Regarding B1, the binding result is given as “no binding (tested: 500 Nm)”.
